Laboratory results as given in PMC3072145.

Columns and labels:
Hfq-65 = Hfq-65 (Escherichia coli, UniProt P0A6X3 1-65, del66-102); assay: EMSA
Hfq-75 = Hfq-75 (Escherichia coli, UniProt P0A6X3 1-75, del76-102); assay: EMSA

Binder: AAAAAAAAAAAAAAAAAA (ssRNA) [rA18]
- binding result (Hfq-65): binds
- binding result (Hfq-75): binds
